Our source for the binding result and EC50 values is patent US20160052996A1 (NEURIMMUNE, published 2016).

Experiment [1] addresses T1, BSA (Sigma-Aldrich) (bovine, UniProt P02769 25-607).
T1 construct: also called bovine serum albumin
In words: direct ELISA. (In an ELISA, binding on a coated surface is turned into a signal by an enzyme label.)

Experiment [2] addresses T2, JCV VP1 VLP (JC virus (JCV), Mad-1 strain, UniProt P03089 1-354).
T2 construct: also called JCV VP1 VLPs; JCV VP1 (coating with reassociation buffer)
In words: direct ELISA, plate coated with antigen at 5 µg/ml in reassociation buffer (VLP); EC50 by non-linear regression (GraphPad Prism).

Experiment [3] addresses T2, JCV VP1 VLP. In words: direct ELISA.

T1 sequence (P02769 25-607 limits assumed): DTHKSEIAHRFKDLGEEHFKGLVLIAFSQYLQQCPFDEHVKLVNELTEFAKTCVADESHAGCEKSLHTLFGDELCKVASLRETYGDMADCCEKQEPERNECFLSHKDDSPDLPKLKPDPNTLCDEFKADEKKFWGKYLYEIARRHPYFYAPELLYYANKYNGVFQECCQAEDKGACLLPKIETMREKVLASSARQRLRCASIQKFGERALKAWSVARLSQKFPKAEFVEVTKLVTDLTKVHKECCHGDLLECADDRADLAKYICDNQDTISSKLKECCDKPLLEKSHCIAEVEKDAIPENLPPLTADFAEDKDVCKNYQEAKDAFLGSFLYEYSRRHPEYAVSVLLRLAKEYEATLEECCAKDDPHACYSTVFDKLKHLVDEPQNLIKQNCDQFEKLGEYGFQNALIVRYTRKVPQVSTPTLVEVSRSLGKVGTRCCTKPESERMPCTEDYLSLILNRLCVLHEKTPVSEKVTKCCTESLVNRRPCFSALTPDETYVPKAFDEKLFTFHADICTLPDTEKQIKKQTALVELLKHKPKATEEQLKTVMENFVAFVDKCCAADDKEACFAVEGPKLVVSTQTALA

B1: NI-307.20F5 (antibody, V domains shown)
VH: EVQLVESGGGVVQPGTSLRLSCAASGFSFNKYGVHWVRQAPGKGLEWVANIWYDGTNPFYADFVKGRFVISRDTSKNTIYLQMNRLRAEDTAVYYCARDAFCGGDCYGGLLHGLDVWGQGTTVTVSS
VL: DVVMTQSPLSLPVTPGEPASISCRSSQSLLHSNGLNYLDWYLQKPGQSPQLLIYLGSNRAPGVPDRFSGSGSGTDFTLKISRVEAEDVGVYYCLQALQTPAFGQGTKVEIK
In the case of B1, the binding result in experiment [1] is “no binding”.

B2: NI-307.26A3 (antibody, V domains shown)
VH: EVQLVESGGVLVQPGGSLRLSCAASGFTFSSYAMTWVRQAPEKGLEWVSTIIGNGAYTYYADSVKGRFTISRDNSKNTLILQMNSLRADDAAVYYCAKGTELAPYYYYFALDVWGQGTTVTVSS
VL: EIVLTQSPGTLSLSPGERATLSCRASQSISSSHLAWYQQKPGQAPRLLIYGASSRATGIPDRFSGGGSGTDFTLTITRLEPEDFAVYYCQQYGSSPYTFGQGTKLEIK
As usually defined, the EC50 is the midpoint of the concentration-response curve. A lower EC50 goes with greater potency. Turning to B2, in experiment [2], the midpoint of the response, the EC50, lay at 0.049 nM.

B3: NI-307.57D4 (antibody, V domains shown)
VH: EVQLVESGGGLVQPGRSLRLSCAASGFTFDHYAMHWVRQVPGRGLEWVSGVTWNSGIIGYADSVKGRFTISRDNAKNSLYLQMTSLRAEDTALYYCAKGTNDFVSYGLDVWGQGTTVTVSS
VL: QSVLTQPPSVSGAPGQRVSISCTGTSSNLGAGFDVHWYQQIPRKAPELLIYGNSIRPSGVPDRFSGSKSGTSASLAITGLQAEDEADYYCQSYDSRLSGSVFGGGTKLTVL
Take B3: it took 0.053 nM to reach a half-maximal effect in experiment [2] (EC50).

B4: NI-307.43E8 (antibody, V domains shown)
VH: EVQLVESGGDVVQPGRSLRLSCAASGFAFSIYAMNWVRQAPGKGLEWVALISTSGTEHYADSVKGRFTISRDNSKNTLFLQINSLRVEDTAVYYCARDLDSTGYYENNYWGQGTLVTVSS
VL: DVVMTQSPLSSPVSLGQPASISCRSSHSLVHSNGDTYLSWLQQRPGQPPRLLIYKISNRFSGVPDRFSGSGAGTDFTLKISRVEAEDVGVYFCMQATSFPRTFGQGTKVEIK
Take B4: in experiment [2], a half-maximal effect (EC50) was put at 0.64 nM.

B5: NI-307.45E10 (antibody, V domains shown)
VH: EVQLVESGGGLVQPGGSLRLSCAASGFSFRFYAMNWVRQAPGKGLEYVSGISGGGGTTYYADSVKGRFTISRDNSKNTLYLQMKSLRAEDTAIYYCAKDQSYCSGAGCHPYYLDYWGQGTLVTVSS
VL: SYVLTQPPSVSVAPGQTARITCGGNNIGSKSVHWYQQKPGQAPVVVVYDDSGRPSGMPERFSGSNSGNTATLTISRVEAGDEADYYCQVWDSSSDHLYVFGTGTKVTVL
B5 displayed an EC50 in experiment [2] of 0.024 nM.

B6: NI-307.105C7 (antibody, V domains shown)
VH: EVQLVESGGGLVQPGGSLRLSCAASGFSFGFYAMNWVRQAPGKGLEYVSGVSGGGGSTYYADSVKGRFTISRDNSKNTLYLQMKSLRAEDTAIYYCAKDQSYCSGGSCHPYYLDYWGQGTLVTVSS
VL: SYVLTQPPSVSVAPGQTARITCGGNNIGSKSVHWYQQKPGQAPVVVVYDDSGRPSGIPERFSGSNSGNTATLTISRVEAGDEADYYCQVWDSSSDHPYVFGTGTKVTVL
Molecule B6 gave an EC50 in experiment [2] of 0.04 nM.

B7: NI-307.27C2 (antibody, V domains shown)
VH: EVQLVESGGGLVKPGGSLRLSCAASGFTFSSYTMNWVRQAPGKGLQWVSSISSSSTYMYYGDSVKGRFTISRDNARNSLYLQMNSLRVEDTAVYYCARYAHDWNVDYWGQGTLVTVSS
VL: QSVLTQPPSASGTPGQRVTISCSGGSSNIGSNPVNWFQQFPGTAPKLLIYANTQRPSGVPDRFSGSKSGTSVSLAISGLQSEDEGDYHCAAWDDSLKGWVFGGGTKLTVL
Regarding B7, it took 0.052 nM to reach a half-maximal effect in experiment [2] (EC50).

B8: NI-307.56A8 (antibody, V domains shown)
VH: EVQLVESGGGLVKPGGSLRLSCAASGFTFSSYRMNWVRQAPGKGLEWVSSISSSSSYIYYGDSVKGRFTISRDNAKNSLYLQMSSLRAEDTAVYYCARYAHDWNIDYWGQGTLVTVSS
VL: not shown
In experiment [2], B8 registered an EC50 of 0.041 nM.

B9: NI-307.47B11 (antibody, V domains shown)
VH: EVQLVESGGGLVKPGGSLRLSCAASGFTFSDYYMNWIRQAPGKGLEWLSCISSSGNTIYYADSVKGRFTISRDNAKNSLYLQMNSLRAEDTAVYYCARDLDKAATGRPYFDYWGQGTLVTVSS
VL: not shown
The molecule B9 came in with an EC50 in experiment [2] of 0.048 nM.

B10: NI-307.24F3 (antibody, V domains shown)
VH: QVQLQESGGGVVQPGRSLRLSCAASGFSFNRYGMHWVRQAPGKGLEWLAVISNDGVNTHYADSVKGRFTISRDNSKSTLYLQASSLRVEDTAVYYCAGYYYGSGTSLFFYWGQGTLVTVSS
VL: EIVLTQSPDSLAVSLGERATINCKSSQTVLYSSNNQNYLAWYQQKPGQPPKLLLYWASTRESGVPDRFSGSGSGTDFTLTISSLQPEDVAVYYCQQYYTAPYTFGQGTKVEIK
Molecule B10 came in with an EC50 in experiment [3] of 6.95 nM.

B11: NI-307.72F7 (antibody, V domains shown)
VH: EVQLVESGGGLVQPGGSLRLSCAASGFTFSSYEMNWVRQAPGKGLEWISYISSRGSTIHYADSVKGRFTISRDDAKNSLYLQMNSLRAEDTAIYYCARDRYDFWSGCIKGCYYGMDVWGQGSTVTVSS
VL: EIVLTQSPGTLSLSPGQRATLSCRASQSISSSYLAWYQQRRGQAPRLLIYGASSRATGIPDRFSGSGSGTDFTLTISRLEPEDFAVYYCQHYGTTLTFGQGTKVDIK
The molecule B11 displayed an EC50 in experiment [2] of 0.019 nM.

B12: NI-307.98H1 (antibody, V domains shown)
VH: QLQLQESGPGLVKPSQTLSLTCAVSGASISSGTYYWGWIRQHPGKGLEWIGYIYPSGSTYYNPSLKSRVIISLDTSKSQFSLNLSSVTAADTAVYYCARDYYDSSGHMGGYYHYAMDVWGQGTTVTVSS
VL: DIQLTQSPSSLSASVGDRVTITCRASQSISSHLNWYQQKPGKVPKLLIYAASTLQSGVPSRFSGSGSGTDFTLAISSLQPADFATYYCQQSYSTPRTFGQGTKVDIK
B12 gave an EC50 in experiment [2] of 0.086 nM.

B13: NI-307.27C11 (antibody, V domains shown)
VH: QVQLQESGPGLVKPSGTLSLTCAVSGDSISSSNWWSWVRQPPGKGLEWIGEIYHSGGTKYNPSLKSRVTISVDKSKNHFSLKLRSVTAADTAVYYCARNRWFDNNRGGYYYYGMDVWGQGTTVTVSS
VL: DIQMTQSPSSLSASVGDRVTITCRASQGISSYLNWYQQKPGKAPKLLISATSDLQSGVPSRFSGSGSGTDFTLTISSLQPEDFATYYCQQSYSTPYTFGQGTKLEIK
Turning to B13, the EC50 in experiment [2] stood at 0.042 nM.

B14: NI-307.50H4 (antibody, V domains shown)
VH: QVQLQESGPGLVKPSGTLSLTCAVSGDSISSSNWWSWVRQPPGKRLEWIGEIYHSGGTKYNPSLKSRVTISVDKSKNHFSLKLRSVTAADTAVYYCARNRWFDNNRGGYYYYGMDVWGQGTMVTVSS
VL: DIQMTQSPSSLSASVGDRVTITCRAGQGISTYLNWYQQKPGKAPNLLIYATSDLQSGVPSRFSGSGSGTDFTLTISSLQPEDFATYYCQQSYNNPYTFGQGTKVEIK
With B14, the EC50 in experiment [2] came out at 0.055 nM.

B15: NI-307.59A7 (antibody, V domains shown)
VH: EVQLVESGGGLVQPGGSLRLSCAASGFTFSSYEMNWVRQAPGKGLEWVSYISSSGTNIYHADSVKGRFTISRDNAKNSLYLQMNSLRAEDTAVYYCARDGPSPRGHNYGHDYWGQGTLVTVSS
VL: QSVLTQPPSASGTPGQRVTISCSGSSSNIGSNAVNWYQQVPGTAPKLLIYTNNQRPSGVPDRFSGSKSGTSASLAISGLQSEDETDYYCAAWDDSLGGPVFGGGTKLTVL
As for B15, in experiment [2], it took 0.066 nM to reach a half-maximal effect (EC50).

B16: NI-307.72F10 (antibody, V domains shown)
VH: EVQLVESGGGVVQPGRSLRLSCATSGFTFDDYAMHWVRQAPGKGLEWVSGLTWSSSGVGYADSVKGRFTISRDNAKNSLYLQMNSLRAEDTALYYCAKGSGEWLRLGQDYWGQGTLVTVSS
VL: QSVLTQPPSVSGTPGQRVTISCTGSSSNIGAGYDVHWYQQLPGTAPKLLIYDNSNRPSGVPDRFSGSKSGTSASLAITGLQAEDEAHYYCQSFDSSLSGSVFGGGTKLAVL
B16 gave a 50% effective concentration (EC50) in experiment [2] of 0.031 nM.

B17: NI-307.105A6 (antibody, V domains shown)
VH: EVQLVESGGGLVQPGRSLRLSCAASGFTFDDYAMHWVRQAPGKGLEWVSGITWNSGSIGYADSVKGRFTISRDNAKNSLYLQMNSLSAEDTALYYCAKGARDYLSYGMDVWGQGTTVTVSS
VL: QSVVTQPPSVSGAPGQRVTISCTGSSSNIGAGYDVHWYQQLPGTAPKLLIFSNTIRPSGVPDRFSGSKSGTSASLAITGLQAEDEANYYCQSYDSSLSGSVFGGGTKLTVL
On to B17, for which, in experiment [2], the EC50 stood at 0.069 nM.

B18: NI-307.29B1 (antibody, V domains shown)
VH: EVQLVESGGGLVKPGGSLRLSCAASGITFQYYAMNWVRQAPGKGLEWVSSIGGRGDTTYYTDSVKGRFTISRDNSKSTLYLQMNSLRAEDTAVYYCAKEPFDSSGDHRGVFDYWGQGTLVTVSS
VL: QSVVTQPPSVSGAPGQRVTISCAGSRSNIGAGYDVNWYQQLPRTAPKLLIYDNTRRPSGVPARFSGSKSGSSASLTITGLQAEDEADYYCQSYDSKLNKVFGGGTKLTVL
As for B18, the EC50 in experiment [2] came to 0.076 nM.

B19: NI-307.53B11 (antibody, V domains shown)
VH: EVQLVQSGAEVKKPGESLKISCKGSGYSFTSYWIGWVRQMPGKGLEWMGIIYPGDSDTRYSPSFQGQVTISADKSITTAYLQWSSLKASDTALYYCARRGSGSFSNYDFWGQGTLVTVSS
VL: QSALTQPRSVSGSPGQSVTISCTGTSSDVGAYNYVSWYQQHPVKAPKLMIYDVSKRPSGVPDRFSGSRSGNTASLTISGLQADDEADYYCCSYAGTYTVLFGGGTKLTVL
In the case of B19, in experiment [2], the concentration for a half-maximal effect (EC50) is 0.064 nM.

B20: NI-307.3G4 (antibody, V domains shown)
VH: QVQLVQSGAELKKPGAAVKVSCQASGYNFLSYGINWVRQIPGQGLQWLGWISTYDGTMNYDQKPDNRVTVTTDTSSSTVYLELRGLRSDDTGVYYCVRDRCAGAGCSHSLGYWGQGTLVTVSS
VL: DIQMTQSPSALSASVGDRVTISCRASQNINTQLNWYQEKPGKAPELLIYGAFNLQSGAPSTFSGSGSGTDFTLTITSLQPEDFASYYCQQGFHAPYTFGRGTKVDIK
Consider B20, for which, in experiment [3], a half-maximal response (EC50) required 28.2 nM. The binding result in experiment [1] is given as “no binding”.

B21: NI-307.6A2 (antibody, V domains shown)
VH: QVQLQESGPGLVKPSETLSLTCAVSGGSVSSSYWYSWVRQLPGKGLEWIGEIFHTGDTNYNPSLESRVTISIDTSKNQLSLDVTSATAADTAVYYCARDYCTDSGCDSDALDVWGHGTMVTVSS
VL: QSALTQPASVSGSPGQSITISCTGTTKDVGNYNLVSWYQQHPGKAPRLVIYEVSERPSGVSNRFSGSKSGNTASLTISGLQAEDEADYHCCSYAGSGTSVFGGGTKVTVL
In experiment [3], B21 yielded a 50% effective concentration (EC50) of 1.39 nM. Besides, the binding result in experiment [1] is given as “no binding”.
